Columns and labels:
[1] = Anti-coagulant activity of human RNIP (preliminary studies); type: biochemical
encapsulated E. coli = details: cited from earlier work
[2] = tested on: rough mutant strain of Proteus mirabilis; details: cited from earlier work
[3] = tested on: wild-type smooth Proteus mirabilis; details: cited from earlier work
human mononuclear cells = test: LPS-induced tissue factor by human mononuclear cells; type: cell-based; details: for Δ Units (%): LPS alone 100
Description: Human mononuclear cells were separated from citrated peripheral blood by centrifugation over Sodium-metrizoate-Ficoll (lymphocyte Separation Medium, Japan Antibody Institute, Gumma). The resulting mixed mononuclear cell suspension was washed 3 times with RPMI 1640 media. Cell suspension (1×10^6 /ml) was stimulated with LPS for 16 to 18 hr.
Veronal buffered saline (VBS) was added to the cell pellet, lysed by 3 cycles of freeze/thaw and sonicated for 10 sec with a hand-held sonicator microbe (Handy Sonic, model UR-20P, Tomy Seiko LTD, Tokyo). Tissue factor activity was tested in modified unactivated partial thromboplastin time (7). One tenth ml of cell lysate (1×10^6 /ml) was preincubated with mouse plasma at 37° C. for 3 min. Then 0.1 ml of 25 mM-CaCl2 which contains phospholipid was added to the mixture and clotting time was measured using a fibrometer (Bio Quest Division, Becton Dickinson, Cokeysville, USA). A standard curve obtained from serial two-fold dilutions of rabbit brain thromboplastic (Simplastin, Ono Pharmaceutical Co.) was used to transpose tissue factor activity into arbitrary tissue factor units (1 μg/ml) suspension of rabbit brain was assigned a value of 1,000 units).
The mean tissue factor units+standard error was determined from three to four samples. Student's t test for unpair data was used to determine the statistically significant differences. A two-tailed P value of <0.05 was considered significant.
S. minnesota SmoothLPS (2 μg/ml) was preincubated with equal volume of
each LPSbinding protein (28HA) at 37° C. for 45 minutes, and the
mixture was added to the cells and cultured for 16 hours.

[4] = tested on: galactosamine-sensitized mice; type: in vivo; details: CAP18 40 μg IP alone, no galactosamine, no Re-LPS
From the text: Galactosamine sensitizes mice to the lethal effects of LPS by a factor 1000 or more. CAP18 and LPS were mixed and injected IP into sensitized mice. CAP18 can neutralize the lethal effects of LPS in this model of endotoxemia (see Table 8).

[5] = first experiment, LPS 0.1 μg/ml
[6] = second experiment, LPS 0.1 μg/ml

## human RNIP: human RNIP polypeptide comprising amino acids 134 to 170 of SEQ ID NO:2, Merrifield solid phase synthesis (LLGDFFRKSKEKIGKEFKRIVQRIKDFLRNLVPRTES)
[1]
  anti-coagulant activity: lacks significant anti-coagulant activity

B1: BPI55: holoprotein of bactericidal permeability increasing protein (BPI) (protein, UniProt P17213 32-487, looked up)
Bactericidal …: VNPGVVVRISQKGLDYASQQGTAALQKELKRIKIPDYSDSFKIKHLGKGHYSFYSMDIREFQLPSSQISMVPNVGLKFSISNANIKISGKWKAQKRFLKMSGNFDLSIEGMSISADLKLGSNPTSGKPTITCSSCSSHINSVHVHISKSKVGWLIQLFHKKIESALRNKMNSQVCEKVTNSVSSELQPYFQTLPVMTKIDSVAGINYGLVAPPATTAETLDVQMKGEFYSENHHNPPPFAPPVMEFPAAHDRMVYLGLSDYFFNTAGLVYQEAGVLKMTLRDDMIPKESKFRLTTKFFGTFLPEVAKKFPNMKIQIHVSASTPPHLSVQPTGLTFYPAVDVQAFAVLPNSSLASLFLIGMHTTGSMEVSAESNRLVGELKLDRLLLELKHSNIGPFPVELLQDIMNYIVPILVLPRVNEKLQKGFPLPTPARVQLYNVVLQPHQNFLLFGADVVYK
Encapsulated E. coli
  growth inhibitory activity, reduction over control: about 100 fold
[2]
  growth inhibition: inhibited the growth
[3]
  growth inhibition: only the rBPI23 inhibited growth

B2: CAP18: cationic protein obtained from rabbit granulocytes, calculated molecular weight 16.6 kD, SEQ ID NO:4 (protein)
chain: METHKHGPSLAWWSLLLLLLGLLMPPAIAQDLTYREAVLRAVDAFNQQSSEANLYRLLSMDPQQLEDAKPYTPQPVSFTVKETECPRTTWKLPEQCDFKEDGLVKRCVGTVTRYQAWDSFDIRCNRAQESPEPTGLRKRLRKFRNKIKEKLKKIGQKIQGLLPKLAPRTDY
Human mononuclear cells; [5]
  Inhibition (%): 30%
  Δ Units (%): 70%
Human mononuclear cells; first experiment, LPS 0.1 μg/ml, LPS alone 16.6
  Tissue Factor, figure in parentheses (relative to unstimulated = 1.0): 9.9
Human mononuclear cells; first experiment, LPS 0.1 μg/ml, LPS alone 17118
  Δ Units: 12001
Human mononuclear cells; first experiment, LPS 0.1 μg/ml, LPS alone 18214 ± 4192, RNIP 2 HA units, CAP-18 1 HA unit
  Tissue Factor: 13097 ± 1946 Units × 10^3 /3.6 × 10^4 cells
Human mononuclear cells; [6]
  Inhibition (%): 35%
  Δ Units (%): 65%
Human mononuclear cells; second experiment, LPS 0.1 μg/ml, LPS alone 14.7
  Tissue Factor, figure in parentheses (relative to unstimulated = 1.0): 9.9
Human mononuclear cells; second experiment, LPS 0.1 μg/ml, LPS alone 6726
  Δ Units: 4366
Human mononuclear cells; second experiment, LPS 0.1 μg/ml, LPS alone 7218 ± 264, HA units HP-1 4, HP-2 2, RNIP 2, CAP-18 1
  Tissue Factor: 4858 ± 1963 Units × 10^3 /3.6 × 10^4 cells
Human mononuclear cells; second experiment, no LPS
  Tissue Factor, figure in parentheses (relative to unstimulated = 1.0): 1.2
  Δ Units: 235
Human mononuclear cells; second experiment, no LPS, unstimulated 492 ± 75
  Tissue Factor: 583 ± 178 Units × 10^3 /3.6 × 10^4 cells
[4]
  Lethality (%) groups of 10 mice: 0%
